What was measured:
HLA-C*14:02 = assay: IEDB peptide-MHC binding, purified MHC/direct/fluorescence; filed as Kd, often an IC50 or EC50 that approximates it; ≥ and ≤ were set here for values at or beyond the usual limits of such assays; conditions: source organism: Variola virus
HLA-B*35:01 = assay: IEDB peptide-MHC binding, purified MHC/competitive/fluorescence; filed as Kd, often an IC50 or EC50 that approximates it; ≥ and ≤ were set here for values at or beyond the usual limits of such assays; conditions: source organism: Shigella flexneri 2a str. 2457T
HLA-B*58:01 = assay: as above; conditions: source organism: Shigella flexneri 2a str. 2457T
HLA-A*01:01 = assay: as above; conditions: source organism: Shigella flexneri 2a str. 2457T
HLA-C*08:02 = assay: IEDB peptide-MHC binding, purified MHC/direct/fluorescence; filed as Kd, often an IC50 or EC50 that approximates it; ≥ and ≤ were set here for values at or beyond the usual limits of such assays; conditions: source organism: Shigella flexneri 2a str. 2457T
HLA-C*04:01 [1] = assay: as above; conditions: source organism: Shigella flexneri 2a str. 2457T
HLA-A*02:06 = assay: IEDB peptide-MHC binding, purified MHC/competitive/radioactivity; ≥ and ≤ were set here for values at or beyond the usual limits of such assays; conditions: source organism: Hepatitis C virus (isolate H77)
HLA-A*02:01 = assay: as above; conditions: source organism: Hepatitis C virus (isolate H77)
HLA-A*02:03 = assay: as above; conditions: source organism: Hepatitis C virus (isolate H77)
HLA-A*02:02 = assay: as above; conditions: source organism: Hepatitis C virus (isolate H77)
HLA-B*27:05 = assay: IEDB peptide-MHC binding, cellular MHC/competitive/radioactivity; ≥ and ≤ were set here for values at or beyond the usual limits of such assays; conditions: source organism: Hepacivirus hominis
HLA-B*45:06 = assay: IEDB peptide-MHC binding, purified MHC/competitive/fluorescence; filed as Kd, often an IC50 or EC50 that approximates it; ≥ and ≤ were set here for values at or beyond the usual limits of such assays; conditions: source organism: Acetivibrio thermocellus ATCC 27405
HLA-C*04:01 [2] = assay: as above; conditions: source organism: Acetivibrio thermocellus ATCC 27405
HLA-B*83:01 = assay: as above; conditions: source organism: Acetivibrio thermocellus ATCC 27405
HLA-B*15:42 = assay: as above; conditions: source organism: Acetivibrio thermocellus ATCC 27405

## VIYEAVIHL
HLA-C*14:02
  Kd: 0.195 µM

## MSPDNALIY
HLA-B*35:01
  Kd: 0.0072 µM
HLA-B*58:01
  Kd: 0.457 µM
HLA-A*01:01
  Kd: 0.0899 µM
HLA-C*08:02
  Kd: ≥ 20 µM
HLA-C*04:01 [1]
  Kd: ≥ 20 µM

## KLVGLGLNAV
HLA-A*02:06
  IC50: 0.009 µM
HLA-A*02:01
  IC50: 0.017 µM
HLA-A*02:03
  IC50: 0.0082 µM
HLA-A*02:02
  IC50: 0.014 µM

## ARHTPVNSW
HLA-B*27:05
  IC50: 0.338 µM

## TVIDVNTGK
HLA-B*45:06
  Kd: ≥ 5 µM
HLA-C*04:01 [2]
  Kd: ≥ 5 µM
HLA-B*83:01
  Kd: ≥ 5 µM
HLA-B*15:42
  Kd: ≥ 5 µM

Source: the Immune Epitope Database (IEDB)
